As usually defined, the Kd is the free concentration of one partner at which half of the binding sites on the other are occupied at equilibrium, for simple one-to-one binding. Lower therefore signals a tighter complex.

From patent JP2012157315A come the findings set out here.

The experiment has as its target EGFR (ミズーリ州セントルイス、シグマ社) (UniProt P00533). Nature of the experiment: SPR (BIACORE X), fusion protein amine-coupled to the chip, 10-100 nM EGFR in flow. On the technique in general: In SPR one partner is held on a chip, and binding of the other changes the refractive index at the surface.

B1: celB+Lama glama由来の抗EGFRのVHH抗体+Hisタグ融合タンパク質 (VHH, not shown: small tags and cut ends)
chain: QQVGTTADAHPRLTTYKCTSQNGCTRQNTSLVLDAATHFIHKKGTQTSCTNSNGLDTAICPDKQTCADNCVVDGITDYASYGVQTKNDTLTLQQYLQTGNATKSLSPRVYLLAEDGENYSMLKLLNQEFTFDVDASTLVCGMNGALYLSEMEASGGKSSLNQAGAKYGTGYCDAQCYTTPWINGEGNTESVGSCCQEMDIWEANARATGLTPHPCNTTGLYECSGSGCGDSGVCDKAGCGFNPYGLGAKDYYGYGLKVNTNETFTVVTQFLTNDNTTSGQLSEIRRLYIQNGQVIQNAAVTSGGKTVDSITKDFCSGEGSAFNRLGGLEEMGHALGRGMVLALSIWNDAGSFMQWLDGGSAGPCNATEGNPALIEKLYPDTHVKFSKIRWGDIGSTYRHQVQLVESGGGLVQAGDSLRLSCVDSGRDFSDYVMGWFRQAPGKEREFVAAISRNGITTRYADSVKGRFTISRDNDKNTVYLQMNSLKPEDTAVYYCATNSAGTYVSPRSRDYDGWGQGTQVTVSS
Consider B1, for which the dissociation constant (Kd) was 14.7 nM.
